Sequences and labels used below:
B1: VHH antibody Re6A11 (VHH)
VHH: QVQLVESGGGLVQAGGSLRLSCAASGRTFSNDALGWFRQAPRKEREFVAAINWNSGTYYADSVKGRFTISRDNAKNTVYLQMNSLKPEDTAVYSCAAASDYGLPREDFLYDYWGQGTLVTVSS
B2: VHH antibody Re9F06 (VHH)
VHH: B1 VHH with L118Q
B3: VHH antibody Re9C07 (VHH)
VHH: QVQLVESGGGLVQAGGSLRLSCAASGRTFSRYAMGWFRQAPGKEREFVAAITWNADTTYYADSVKGRFTISRDNAKNTVYLQMNSLKPEDTAVYYCAAGGNHYYSRSYYSSLEYDHWGQGTQVTVSS
B4: VHH antibody Re9D02 (VHH)
VHH: QVQLVESGGGLVQAGGSLRLSCAASGRTFSNYAMGWFRQAPGKEREFVAAISWGGDTTYYADSLKGRFTISRDNAKNTVYLQMNSLKPEDTAVYYCAADRGLSYYYDRVTEYDYWGQGTQVTVSS
B5: VHH antibody Re9G12 (VHH)
VHH: QVQLVESGGGLVQAGGSLRLSCAASGRTFSSYVMGWFRQAPGKEREFVAHISWSGDSTYYADSVKGRFTIFRDNAKNTAYLQMNSLKPEDTAVYYCAADRGASYYYTWASEYNYWGQGTQVTVSS
B6: VHH antibody Re11H04 (VHH)
VHH: QVQLVESGGGLVQPGGSLRLSCAASGFTLDYYTIAWFRQAPGKEREGVSCISGNDGSTYYADSVKGRFTISRDNAKNTVYLQMNSLKPEDTAVYYCAADRGESYYPFRPSEYHYWGQGTQVTVSS
B7: VHH antibody Re7E02 (VHH)
VHH: QVQLVESGGGLVQAGGSLRLSCAASGFTLDYYAIGWFRQAPGKEREGVSYIRSSDGTTYYADSVKGRFTISRDNAKNTVYLQMNSLKPEDTAVYYCAADEAYYSELGWESPWGWSYWGQGTQVTVSS
B8: VHH antibody Re6B07 (VHH)
VHH: B7 VHH with A14P, Q122R

Positions count from the first letter of the chain named.

The values that follow come from patent US20240173398A1 (MAX PLANCK GESELLSCHAFT ZUR F RDERUNG DER WISSENSCHAFTEN E V, published 2024).

The target in this assay is SARS-CoV-2 RBD (correctly folded, co-expressed with fold-promoting VHH in E. coli) (SARS-CoV-2, UniProt P0DTC2 330-527). Briefly: co-expression in E. coli, co-purification and gel filtration. A general note: In gel filtration, larger molecules generally elute earlier.
For B1, the binding result is on record as “binds”.

With B2, the binding result is given as “binds”.

For the molecule B3, the binding result is on record as “binds”.

Regarding B4, the binding result is given as “binds”.

Turning to B5, the binding result is “binds”.

Consider B6, for which the binding result was “binds”.

In the case of B7, the binding result is reported as “binds”.

As to B8, the binding result was “binds”.
